# Source: the DeepSol protein solubility set
# Assay: soluble on expression in E. coli; label from the status in PepcDB or PDB records
row,Sequence,soluble on expression in E. coli
1,MGLFASAPVDDGSMEIVRDFIQNMENDAQSSNKSAFADCFMDTFNFNVRGRIFTKALFVESYLTKPNPEPLILKSSIFTQGKNEIKFNVSHVVGPRTNIADFYLLREGEEGKWRLKSGIVIN,not soluble
2,MASETSQFGIETDSITLQRYVLQEQRKHADASGELTALLTNMLVAIKAIASATQKAGLAKLYGIAGATNVQGEEVKKLDVLSNELMINMLKSSYTTCLLVSEENDELIEVEEQRRGKYIVTFDPLDGSSNIDCLVSIGTIFGIYKKRGDGPATVDDVLKPGKEMVAAGYALYGSATMVVLSTGDGVNGFTLDPSIGEFILTHPNMKCKEKGSIYSLNEGYAQTWSKGFAEYIRTRKYPEAGKKAMGQRYVGSMVADVHRTILNGGIFLYPPTVSAPNGKLRLLYECNPMAYIIEQAGGLATTGKERILDIQPTQIHQRAPIILGSKLDVEEALEYLAKYDN,not soluble
3,MANEVIKCKAAVAWEAGKPLSIEEIEVAPPKAHEVRIKIIATAVCHTDAYTLSGADPEGCFPVILGHEGAGIVESVGEGVTKLKAGDTVIPLYIPQCGECKFCLNPKTNLCQKIRVTQGKGLMPDGTSRFTCKGKTILHYMGTSTFSEYTVVADISVAKIDPLAPLDKVCLLGCGISTGYGAAVNTAKLEPGSVCAVFGLGGVGLAVIMGCKVAGASRIIGVDINKDKFARAKEFGATECINPQDFSKPIQEVLIEMTDGGVDYSFECIGNVKVMRAALEACHKGWGVSVVVGVAASGEEIATRPFQLVTGRTWKGTAFGGWKSVESVPKLVSEYMSKKIKVDEFVTHNLSFDEINKAFELMHSGKSIRTVVKI,soluble
4,MNPITNIKNQNRMNERELSLGYAGDLKKSWHQTYKDSAWIYIGGLSYALSEGDVIAVFSQYGEVMNINLIRDKDTGKSKGFAFLCYKDQRSTILAVDNFNGISLHKRMIRVDHVEEYKVPKYKEDADDETKRLWEEGCAPKPVMREAAPMEVQEQRIKKAKEVLLDIGDVDEELLKKIKKDKKKAKKEKKREKKRAKKIRKLEKKAARDPDGDWNNKAKLIDKVVAEDDLYGENKHFDFGKKKEVEEVKHNPRPDFEKADWRDIEIWKVIREREKAEKAARGETSEAWGPEDHYVSKRYQGR,not soluble
5,MSLLVLGIESSCDETGVALYDTERGLRAHCLHTQMAMHAEYGGVVPELASRDHIRRLVPLTEGCLAQAGASYGDIDAVAFTQGPGLGGALLAGSSYANALALALDKPVIPVHHLEGHLLSPLLAEEKPDFPFVALLVSGGHTQIMAVRGIGDYALLGESVDDAAGEAFDKTAKLLGLLYPGGAKLSELAESGRFEAFVFPRPMIHSDDLQMSFSGLKTAVLTAVEKVRAENGADDIPEQTRNDICRAFQDAVVDVLAAKVKKALLQTGFRTVVVAGGVGANRKLRETFGNMTVQIPTPKGKPKHPSEKVSVFFPPTAYCTDNGAMIAFAGAMHLGKGREVGAFNVRPRWPLSEIVREGHHHHHH,soluble
6,MLKFISLLGTSKYVPCNYFIKNREELKINDCCYVQKAILDILRQENVIPDKIIIFTTDEAHVSNWENNKWNNKGDKNDVQEIEDELQKRPGLKGELEKYKELTGADFKSVRIPNGIREEDLWEIFRTIFDEIDENDEIIFDVTHSFRYLPMLVFIVINYARVVKKCKLKSIYYGAFEVLGTPETVAKIPLEERNAPIFDLTSFVDLFDWTMGIDRYLNTGDVSVVHELTDIQIKRVNKEKLKFISKSEQGVDPKTLFMDSRQLRALSESMKNFSDVVFTCRGLELTRVACELKEKLREVTESASRQHIIPLMPVLEMMKERFDKFSKDNDYINIIETARWCADNKMYQQGLTILEEGLISFGCEKLGYENLSDKIDLDKRRKIGSYAFVVSNDFGRKSDNKKEKIPLLNIKSDVITDLLILIDEISSIRNDINHAGWRKDPSEAGAFGEQLKNFISRAEKIISPENFSTESDKCINNDSVDKEKKMLLILSHKLVPKQEEEARQRFGISKFLPMPNELHNKWSNIPPELEDLRDYLNDILEWIDLNAQEGDYALIQGDYGATFIAVNHCLAKGIIPVYSTTHRIVREEKNEDKVISVREFEHVILRKYEN,not soluble
7,MGSDKIHHHHHHMRGDMLKRELQAYAKEIGIDEFRVTTADPFLVMKQRLMEQQEKGYASGFEEPDLERRTTPALLLEDAVSIIAIAVAYPSKLKDAPRGKEGERRGIFGRSSWGLDYHQALKQRLTLLEEKIQELSPGARSRSMVDTGELVDRAVAERAGIGFSGKNCSIISEEHGSYLYLGELITDQYLPPDESVEELCGSCNKCLDACPTDALIEPGVIDAKRCISFITQTKTLIPEHFRYALGNRLYGCDTCQQVCPYNRKKNATQHSELQPDPEQVKPLLIPLLSLSNREFKSRFGSLSGAWRGKKPIQRNAVCALVHYQDRTALDALRLMAETDQREDMRALAIWAVGRIAGQEAEDYIQKRLLTDSAEDVQVEGNRLLEEWGNGHAI,not soluble
8,FECGVNSLDEWLKRRALANQHSGASRTFVVADHDSRVYGYYAMAAGAVSHQAATSGVRRNMPDPVPVMVLARLAVDQRAQGIKLGAALLQDAVNRVVNVSHNVGVRALLVHALDDRAKQFYAHYGFKESPQHPM,not soluble
9,MAHHHHHHMMRSRRPLSASRASARASAASRPQPHTTVSSDDASRSQTTAPIYRPLRYVGRGSFGVVLLAEEVHTGDRVAIKRVHYDARLHNREVAILNSVLVDNPRHQQPSSTAVDSNDASRRPGGAARASCTSFLSASSSSHTVEDVHLWPGTHHPNIVELLDFYVTYDTASSEQALGADMVGAGGAGAGFEFLPSYHPAAHRYPLSGGSGAASASAPPVPAPLAAFAYLEMVMSYLPMDLCYVKRYYFRFHDMPTIATSSSSSPIASPEQAPTELSSGELPEGTADRLPASPKHAGTGCNGNNSSRHSSTSSSGGDVCNHLPLRWVKVVLFQLARALAFMHVRHVCHRDLKPANVLVDPDTGRVQVCDFGSAKQITRPAEEKNVSYICSRYYRAPELLFGALHYGCAVDMWSFGCIAAELLRESGKPLFRGCTSIDQMAELFKVLGAPSKREMYAMNPQCAEALLRTRAMHRHQSLDNDPHSGSGGGVRQDRSCGLELEVDYQAEEEDDVELRGGAQQGGYDVDSHGEFLRDALDDGISSQASASPGMATASPPSSSTKDPRDYKTTFSAPPSTAATAMLDDVAPTPFEEYYDVLKVRAIPWRRLFPVDTPTEAVALVASLLCYAPDKRLTAAELVEHPFFDDLFSAADAQLATVDRDAATAVASGATMSPSEDDGVASAALRLPNGRLMPLSMFQVTEVERGLYTDAFLTRMARQAELVAAVMKQDEYP,not soluble
10,MSKRLPPLNALRVFDAAARHLSFTRAAEELFVTQAAVSHQIKSLEDFLGLKLFRRRNRSLLLTEEGQSYFLDIKEIFSQLTEATRKLQARSAKGALTVSLPPSFAIQWLVPRLSSFNSAYPGIDVRIQAVDRQEDKLADDVDVAIFYGRGNWPGLRVEKLYAEYLLPVCSPLLLTGEKPLKTPEDLAKHTLLHDASRRDWQAYTRQLGLNHINVQQGPIFSHSAMVLQAAIHGQGIALANNVMAQSEIEAGRLVCPFNDVLVSKNAFYLVCHDSQAELGKIAAFRQWILAKAATEQEKFRFRYEQ,not soluble
11,MSEMNAVYNVKQYILNLIMQNKLEYGDQLPSNLSIARELNVKTDDVYEAIQALITEQVIKDNFEEGTSVKSLPPFFYPLNELISIGQMIKNAGFECGTEYLNFDEQPATMLDANLLSVEEGYPVTIIERLRTADGEPVVYCLDKIAKKELTCTEYQMSNGSILSAIKEQSNHNICYADTEIEAVNYEPRISEVLNASPHEGLILLKITHYNELDEPILYSLNYMKNSLVQFKITRKI,not soluble
12,MNYGNNGGGQWQPRGNNNWRPQGRGRGGGGWKGNDNRGGYRGGSSNDGGWSNFRDDGNLNFASPYQANRGNFRGNYRGGGGGGGGNQNNYGNRGRGRGGFDRGRGGGGGGNKNFGPIDANKCIIPSMWNNPWDALEKEYEQEYGVAITEKVTDPSPSPSSAEETTA,not soluble
13,MLDYFFNPKGIAVIGASNDPKKLGYEVFKNLKEYKKGKVYPVNIKEEEVQGVKAYKSVKDIPDEIDLAIIVVPKRFVKDTLIQCGEKGVKGVVIITAGFGETGEEGKREEKELVEIAHKYGMRIIGPNCVGIMNTHVDLNATFITVAKKGNVAFISQSGALGAGIVYKTIKEDIGFSKFISVGNMADVDFAELMEYLADTEEDKAIALYIEGVRNGKKFMEVAKRVTKKKPIIALKAGKSESGARAASSHTGSLAGSWKIYEAAFKQSGVLVANTIDEMLSMARAFSQPLPRGNKVAIMTNAGGPGVLTADELDKRGLKLATLEEKTIEELRSFLPPMAAVKNPVDMIASARGEDYYRTAKLLLQDPNVDMLIAICVVPTFAGMTLTEHAEGIIRAVKEVNNEKPVLAMFMAGYVSEKAKELLEKNGIPTYERPEDVASAAYALVEQAKNVGILEVE,soluble
14,MGSDKIHHHHHHMLLTTRPPSPDSIPCCAGCSMARVCLAGNCDSDGEGPADGLAQRVIRLRKGEPLYLLGDPLAALFAVRVGTVKTHVATEDGRTQVVGFHFPGEVVGLDSIGRRQYASYATALEDTKVCMIPMDVLRPLAACTPALASRVFRALDGYAQRTRALQTLLALMTAEERLVTFLLWISEGLAARGFSSSEFILRMSREEIGSYIGLTLETVSRQFSRLAECGLIRVKHRSVALVDKAGLRAIADRSAISPIPPGTNRRRGGEQRVPAQALRTSAPAWATRTQPATAAMQADNPKINPFAWEAGNGQQ,not soluble
15,MGSDKIHHHHHHMLTASSITLQFASKPLFENVNVKFGDGNRYGLIGANGSGKSTFMKILAGELEPTAGNVSLDPGERMAWLRQDQFGYEDQRVLDVVMQGHVEMWRVMQEKDAIYMNPEASEEDYLRAAELEGKFGELGGYDAEARAGELLLGVGIPTEQHQGTMSQIAPGFKLRVLLAQALFSKPDILLLDEPTNNLDINTIRWLEQVLNESNATIVVISHDRHFLNQVCTHMADLDYGTIKVWPGNYDDYMLASSEAKARQAAANARAKDKVAELQEFVRRFSANKSKARQATSRMKMIDKIKIEDFKPSSRQNPYIRFEPEKALHRRALEVENLKFGYDAEPLFTNLGFSLEAGEKLAVIGGNGVGKSTLMKLLMGELTPAYGEIRWSENANVGYFSQDHVADFDMDLNLTDWMHQWTQAGDDEQVLRGILGRLLFSGDDVKKSVRVLSGGEKGRMLYGKLMLGRHNVLVMDEPTNHMDMESIESLNLALELFKGTLIFVSHDRQFVSSLATRILEITPQGVEFYMGNYDEYLHSKGLE,not soluble
16,MAHHHHHHMRIHAPPYPFFNFLFLCFHTEPRRIPRRTVSYTQVVPASIFHGMADRALTCVRPAAYFLPGDRASSFLSSGAILLFEERVCTPHKASESTVCPVAGHSKVFAPSCYVEPFSIIEVALEERRNRVGRMSWCFRLFAIKLRGGNPTQFPPPASSVEHVQV,not soluble
17,MVYLKGQIRKALSGFYYVYADGETYQTRARGNFRNRKITPLVGDEVLFESDNLTDGYVLEILPRRNELVRPPVANVDLGVVVMSMVSPNFSFNLLDRFLVSLEYKDIEPVIYLTKVDLLDEPQRQQVTEIKQIYEALGYAVIASEDVEATKELERFFPERLTVFMGQSGAGKSTLLNQISPELQLATAEISQSLGRGKHTTRHVELIPLYDGLVADTPGFSAIDFLEMEAVELPKQFPEFVAAASHCKFRECMHHKEPGCEVKRQVEAGTIATSRYENYLQFLMEIENRRPVYKKKS,not soluble
18,MSKPLIFAHRGVKGTHPENTMIAFQEAERIGAHGIELDVHLSKDGELVVIHDETVDRTTNGVGLVSEKTVEELQLLDAGSYKDPSFHEAKIPTLREVFIWLSTTNLQLNIELKTDVIHYPNIEEKAVALVREYHLSNQIVFSSFNHDSVSLLAEIAPEIPRAILYDTPLTDPISEAKHREASGLHPNFQLLTKEFVQLAQEQGYVFRPYTINEYKDLQTMIDYGVDVIITDWPARAFELLS,not soluble
